The nature of the data set: self-splicing fitness, log relative to wild type (ln ratio); higher = more splicing; Tetrahymena group I intron in knt gene, E. coli kanamycin selection, DiMSum; sequences stand for … in CUCUCU…GGAGGGAAAAGUUAUCAGGCAUGCACCUGGUAGCUAGUCUUUAAACCAAUAGAUUGCAUCGGUUUAAAAGGCAAGACCGUCAAAUUGCGGGAAAGGGGUCAACAGCCGUUCAGUACCAAGUCUCAGGGGAAACUUUGAGAUGGCCUUGCAAAGGGUAUGGUAAUAAGCUGACGGACAUGGUCCUAACCACGCAGCCAAGUCCUAAGUCAACAGAUCUUCUGUUGAUAUGGAUGCAGUUCACAGACUAAAUGUCGGUCGGGGAAGAUGUAUUCUUCUCAUAAGAUAUAGUCGGACCUCUCCUUAAUGGGAGCUAGCGGAUGAAGUGAUGCAACACUGGAGCCGCUGGGAACUAAUUUGUAUGCGAAAGUAUAUUGAUUAGUUUUGGAGUACUCGUGGUCG
The method, boiled down: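 The eight P1ex-region nucleotides of an intron in the knt kanamycin-resistance gene on pET-22b(+) were all randomised and the library put into E. coli BL21(DE3). Six replicate transformations were grown overnight at 37°C or 30°C on LB agar with or without 25 μg/mL kanamycin, together with 100 μg/mL carbenicillin, 50 μM IPTG and 0.2% rhamnose. Colonies were pooled and amplicon-sequenced on an Illumina HiSeq 2500. Fitness from DiMSum is the error-weighted combination of wild-type-normalised replicate fold changes, kanamycin over none.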

± gives the uncertainty stated by the source.

CUGCAGCAAUAUUACGUGAA: the “self-splicing fitness (ln)” value (30 °C) was -4.94 ± 0.45 and the “self-splicing fitness (ln)” value (37 °C) was -3.45 ± 0.23. The matching figures for GCUUAGCAAUAUUACGGCGA: -1.75 ± 0.14 and -1.33 ± 0.16.

On to GGACAGCAAUAUUACGCUCC, for which the “self-splicing fitness (ln)” value (37 °C) is -1.24 ± 0.46.

For CAGUAGCAAUAUUACGUUCG, the “self-splicing fitness (ln)” value (30 °C) is 0.207 ± 0.07 and the “self-splicing fitness (ln)” value (37 °C) stood at 0.209 ± 0.1.

On to UGCCAGCAAUAUUACGUCUC, for which the “self-splicing fitness (ln)” value runs as follows: (30 °C) -4.62 ± 0.29; (37 °C) -2.11 ± 0.25.

Consider GUUUAGCAAUAUUACGUUGU, for which the “self-splicing fitness (ln)” value is -4.02 ± 0.21 (30 °C) and -2.17 ± 0.16 (37 °C). As to UAUGAGCAAUAUUACGGUUC, the “self-splicing fitness (ln)” value was -3.43 ± 0.19 (30 °C) and -3.82 ± 0.46 (37 °C).

For GUCGAGCAAUAUUACGCAGG, the “self-splicing fitness (ln)” value (37 °C) is -3.05 ± 0.38. With CACCAGCAAUAUUACGUUAC, the “self-splicing fitness (ln)” value is -4.48 ± 0.26 (30 °C) and -2.45 ± 0.18 (37 °C). For AGCCAGCAAUAUUACGAUAC, in that order: -3.73 ± 0.14 and -3.14 ± 0.14. Consider UUAAAGCAAUAUUACGGAUC, for which the “self-splicing fitness (ln)” value was -1.78 ± 0.24 (30 °C) and -0.2 ± 0.21 (37 °C). Turning to UGACAGCAAUAUUACGAAUA, the “self-splicing fitness (ln)” value runs as follows: (30 °C) -1.26 ± 0.13; (37 °C) -0.589 ± 0.14. For GUGAAGCAAUAUUACGAAUC, in that order: -0.696 ± 0.14 and -0.964 ± 0.22. UGGUAGCAAUAUUACGCGGU: for the setting “37 °C”, the “self-splicing fitness (ln)” value is -2.58 ± 0.45. On to CAAGAGCAAUAUUACGUGGA, for which the “self-splicing fitness (ln)” value by setting is: (30 °C) -3.87 ± 0.28; (37 °C) -2.43 ± 0.15. As to AUGGAGCAAUAUUACGCUAG, under “37 °C”, the “self-splicing fitness (ln)” value is -1.66 ± 0.25. As to UCAAAGCAAUAUUACGAUAG, the “self-splicing fitness (ln)” value is -0.853 ± 0.11 (30 °C) and -2.03 ± 0.15 (37 °C). On to AACUAGCAAUAUUACGAACC, for which the “self-splicing fitness (ln)” value by setting is: (30 °C) -0.5 ± 0.2; (37 °C) -0.373 ± 0.21.

Take CACGAGCAAUAUUACGGCCC: the “self-splicing fitness (ln)” value by setting is: (30 °C) -3.09 ± 0.28; (37 °C) -2.95 ± 0.36. For GAUCAGCAAUAUUACGUGGG, in that order: -3.21 ± 0.13 and -1.7 ± 0.11. For AUUCAGCAAUAUUACGUCCA, the “self-splicing fitness (ln)” value was -1.19 ± 0.17 (30 °C) and -1.55 ± 0.23 (37 °C). Turning to CAAAAGCAAUAUUACGCUAA, the “self-splicing fitness (ln)” value was -3.66 ± 0.25 (30 °C) and -2.1 ± 0.21 (37 °C). For GUGCAGCAAUAUUACGAUUA, in that order: -1.38 ± 0.13 and -0.611 ± 0.12. For CUGGAGCAAUAUUACGACUC, the “self-splicing fitness (ln)” value (37 °C) is -2.39 ± 0.41. Consider GCUUAGCAAUAUUACGUCGU, for which the “self-splicing fitness (ln)” value runs as follows: (30 °C) -0.74 ± 0.097; (37 °C) 0.231 ± 0.14.

Take CGGUAGCAAUAUUACGUCCU: the “self-splicing fitness (ln)” value was -0.294 ± 0.063 (30 °C) and 0.121 ± 0.08 (37 °C). Consider GCCAAGCAAUAUUACGCUGU, for which the “self-splicing fitness (ln)” value was -2.26 ± 0.12 (30 °C) and -1.36 ± 0.13 (37 °C). On to AUAUAGCAAUAUUACGGGUU, for which the “self-splicing fitness (ln)” value (30 °C) was -3.43 ± 0.14 and the “self-splicing fitness (ln)” value (37 °C) is -2.51 ± 0.14. The matching figures for GCCGAGCAAUAUUACGGGUC: -3.68 ± 0.16 and -2.77 ± 0.11. Consider CCCCAGCAAUAUUACGCUAU, for which the “self-splicing fitness (ln)” value by setting is: (30 °C) -3.43 ± 0.15; (37 °C) -1.9 ± 0.13. As to CAGAAGCAAUAUUACGCCCU, the “self-splicing fitness (ln)” value (37 °C) was -1.83 ± 0.43. For the sequence UUGUAGCAAUAUUACGGGAA, the “self-splicing fitness (ln)” value (30 °C) is -2.13 ± 0.17 and the “self-splicing fitness (ln)” value (37 °C) was -1.32 ± 0.16.

Take ACAUAGCAAUAUUACGUUGC: the “self-splicing fitness (ln)” value is -4.02 ± 0.33 (30 °C) and -2 ± 0.28 (37 °C). For CACAAGCAAUAUUACGUUCG, in that order: -0.461 ± 0.048 and 0.012 ± 0.06.

On to AAUAAGCAAUAUUACGGAGG, for which the “self-splicing fitness (ln)” value was -3.19 ± 0.18 (30 °C) and -1.93 ± 0.2 (37 °C).

With CCCGAGCAAUAUUACGUUAA, the “self-splicing fitness (ln)” value runs as follows: (30 °C) -2.82 ± 0.2; (37 °C) -2.25 ± 0.16. For GAUAAGCAAUAUUACGUAUA, in that order: -1.81 ± 0.12 and -1.01 ± 0.11. For CUCGAGCAAUAUUACGCGGC, in that order: -3.35 ± 0.47 and -3.16 ± 0.4. As to CUAAAGCAAUAUUACGUACA, the “self-splicing fitness (ln)” value (30 °C) is -2.52 ± 0.14 and the “self-splicing fitness (ln)” value (37 °C) is -0.872 ± 0.18. For CUGGAGCAAUAUUACGCAGC, in that order: -3.72 ± 0.49 and -0.0349 ± 0.47.

In the case of CAUUAGCAAUAUUACGUCUA, the “self-splicing fitness (ln)” value is, setting by setting: (30 °C) -2.74 ± 0.17; (37 °C) -2.2 ± 0.17. For GGGGAGCAAUAUUACGGCGU, in that order: -1.31 ± 0.12 and -1.08 ± 0.15. For CAUGAGCAAUAUUACGUAUC, in that order: -3.9 ± 0.32 and -3.15 ± 0.25.

For UGGCAGCAAUAUUACGAUGC, the “self-splicing fitness (ln)” value is, setting by setting: (30 °C) -3.93 ± 0.28; (37 °C) -2.65 ± 0.41. For CAGAAGCAAUAUUACGUACC, in that order: -2.33 ± 0.24 and -1.55 ± 0.27. The matching figures for CCACAGCAAUAUUACGGUAG: -0.799 ± 0.046 and -0.163 ± 0.065. Take CACUAGCAAUAUUACGUAAA: the “self-splicing fitness (ln)” value is, setting by setting: (30 °C) -3.48 ± 0.18; (37 °C) -2.61 ± 0.2. Regarding AAGGAGCAAUAUUACGAAGG, the “self-splicing fitness (ln)” value runs as follows: (30 °C) -3.3 ± 0.28; (37 °C) -2.99 ± 0.41. With CGCCAGCAAUAUUACGAUAG, the “self-splicing fitness (ln)” value worked out at 0.428 ± 0.062 (30 °C) and 0.155 ± 0.081 (37 °C). As to ACGGAGCAAUAUUACGAAAG, the “self-splicing fitness (ln)” value (30 °C) is -3.06 ± 0.31.

Regarding CCAUAGCAAUAUUACGGGUU, the “self-splicing fitness (ln)” value reads like this: (30 °C) -3.69 ± 0.17; (37 °C) -3.79 ± 0.34. Take CGAAAGCAAUAUUACGUAUG: the “self-splicing fitness (ln)” value (30 °C) was -1.15 ± 0.057 and the “self-splicing fitness (ln)” value (37 °C) was -0.533 ± 0.083.

Consider UUACAGCAAUAUUACGGCUA, for which the “self-splicing fitness (ln)” value runs as follows: (30 °C) -0.676 ± 0.091; (37 °C) 0.443 ± 0.11.

Turning to GUCUAGCAAUAUUACGAGAC, the “self-splicing fitness (ln)” value (30 °C) was -3.7 ± 0.24 and the “self-splicing fitness (ln)” value (37 °C) is -2.34 ± 0.3. For CAUGAGCAAUAUUACGGACG, in that order: -0.912 ± 0.087 and -0.391 ± 0.11.

Regarding AGACAGCAAUAUUACGUACC, the “self-splicing fitness (ln)” value (30 °C) is -0.256 ± 0.11 and the “self-splicing fitness (ln)” value (37 °C) was -0.253 ± 0.14.

For the sequence GACUAGCAAUAUUACGAGUG, the “self-splicing fitness (ln)” value is, setting by setting: (30 °C) -0.94 ± 0.078; (37 °C) -0.316 ± 0.098. As for AUAGAGCAAUAUUACGAACU, the “self-splicing fitness (ln)” value by setting is: (30 °C) -0.774 ± 0.13; (37 °C) 0.227 ± 0.18. Regarding UCAGAGCAAUAUUACGCGUU, the “self-splicing fitness (ln)” value is, setting by setting: (30 °C) -4.72 ± 0.29; (37 °C) -2.78 ± 0.21. Turning to AUUCAGCAAUAUUACGUAAG, the “self-splicing fitness (ln)” value (30 °C) is -0.27 ± 0.069 and the “self-splicing fitness (ln)” value (37 °C) was -0.22 ± 0.093. As to GAUUAGCAAUAUUACGCGGA, the “self-splicing fitness (ln)” value by setting is: (30 °C) -3.19 ± 0.26; (37 °C) -1.55 ± 0.15. For UUUCAGCAAUAUUACGAUUU, in that order: -1.34 ± 0.098 and -0.0319 ± 0.12. CUCAAGCAAUAUUACGCUGG: the “self-splicing fitness (ln)” value is -3.19 ± 0.15 (30 °C) and -2.62 ± 0.23 (37 °C). As for GAGAAGCAAUAUUACGCGCA, the “self-splicing fitness (ln)” value is -0.304 ± 0.11 (30 °C) and 0.342 ± 0.12 (37 °C).

Regarding GACAAGCAAUAUUACGUCCU, the “self-splicing fitness (ln)” value reads like this: (30 °C) -1.99 ± 0.27; (37 °C) -0.755 ± 0.19. For ACUGAGCAAUAUUACGUGAG, in that order: -1.82 ± 0.063 and -1.36 ± 0.085. Consider AAACAGCAAUAUUACGACCU, for which the “self-splicing fitness (ln)” value is -0.0846 ± 0.062 (30 °C) and -0.604 ± 0.076 (37 °C).

As to AUAUAGCAAUAUUACGAGCU, the “self-splicing fitness (ln)” value is, setting by setting: (30 °C) -2.13 ± 0.1; (37 °C) -1.11 ± 0.1. As for GCGCAGCAAUAUUACGUGCA, the “self-splicing fitness (ln)” value reads like this: (30 °C) -2.09 ± 0.096; (37 °C) -0.706 ± 0.08. With CAGUAGCAAUAUUACGAAUU, the “self-splicing fitness (ln)” value (30 °C) was -3.34 ± 0.28. Regarding GUGUAGCAAUAUUACGUACU, the “self-splicing fitness (ln)” value reads like this: (30 °C) -1.52 ± 0.095; (37 °C) -1.19 ± 0.14. For CUCGAGCAAUAUUACGAAAU, in that order: -3.36 ± 0.42 and -2.38 ± 0.27.

In the case of GAGCAGCAAUAUUACGGACU, the “self-splicing fitness (ln)” value is, setting by setting: (30 °C) -1.32 ± 0.082; (37 °C) -0.127 ± 0.11.

CGCCAGCAAUAUUACGCAUC: the “self-splicing fitness (ln)” value was -3.71 ± 0.16 (30 °C) and -2.74 ± 0.17 (37 °C). For UCUUAGCAAUAUUACGUCAA, in that order: -2.43 ± 0.25 and -2.6 ± 0.44. On to CGACAGCAAUAUUACGAUGG, for which the “self-splicing fitness (ln)” value reads like this: (30 °C) -0.855 ± 0.072; (37 °C) -0.172 ± 0.094. The matching figures for GCCAAGCAAUAUUACGCAUG: -4.41 ± 0.46 and -2.22 ± 0.3.

For the origin of these results see the supplement of paper PMC7877785.
